Source: patent US20240158512A1 (TRUEBINDING, published 2024)
Several values for one entry are separate records, joined by “and”; a condition that tells them apart may be missing. Identical values can stand only once. Values belong to the binder of their own block, whether it stands above or below them.

Key:
[1] = biological target: T1, Galectin-3 (UniProt P17931 1-250, limits assumed); test: BLI; after -80 C for 6 months
T1 construct: Target of the anti-Gal3 antibody TB006; also called Gal3; GAL3
T1 sequence (P17931 whole entry): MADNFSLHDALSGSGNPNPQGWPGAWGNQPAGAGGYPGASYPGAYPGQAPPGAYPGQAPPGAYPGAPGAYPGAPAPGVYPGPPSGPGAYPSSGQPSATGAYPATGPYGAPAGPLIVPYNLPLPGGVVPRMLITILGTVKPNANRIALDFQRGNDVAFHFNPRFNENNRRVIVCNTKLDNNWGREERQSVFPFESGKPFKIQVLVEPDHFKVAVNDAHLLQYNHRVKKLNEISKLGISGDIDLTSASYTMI

[2] = biological target: T1, Galectin-3; test: BLI; after 5 freeze/thaws, 25% vol. of container
[3] = biological target: T1, Galectin-3; test: BLI; after 3 freeze/thaws, 50% vol. of container
[4] = biological target: T1, Galectin-3; test: BLI; after 3 freeze/thaws, 25% vol. of container
[5] = biological target: T1, Galectin-3; test: BLI; after 25 C for 6 months
[6] = biological target: T1, Galectin-3; test: BLI; after -80 C for 3 months
[7] = biological target: T1, Galectin-3; test: BLI; after 4 C for 18 months
[8] = biological target: T1, Galectin-3; test: BLI; after 4 C for 1 month
[9] = biological target: T1, Galectin-3; test: BLI; after 5 freeze/thaws, 75% vol. of container
[10] = biological target: T1, Galectin-3; test: BLI; after 25 C for 9 months
[11] = biological target: T1, Galectin-3; test: ELISA blocking assay; TB006 diluted to 0.31 mg/mL in 0.9% NaCl, 25 C, 1 h; blocked partner not named
[12] = biological target: T1, Galectin-3; test: BLI; after 5 freeze/thaws, 50% vol. of container
[13] = biological target: T1, Galectin-3; test: ELISA blocking assay; TB006 diluted to 0.31 mg/mL in 0.9% NaCl, 25 C, 2 h; blocked partner not named
[14] = biological target: T1, Galectin-3; test: ELISA blocking assay; TB006 diluted to 0.31 mg/mL in 0.9% NaCl, 25 C, 4 h; blocked partner not named
[15] = biological target: T1, Galectin-3; test: BLI; after 40 C for 21 days
[16] = biological target: T1, Galectin-3; test: BLI; after 40 C for 14 days
[17] = biological target: T1, Galectin-3; test: BLI (Binding Activity); long-term stability 5 C, 0 months; 5° C. long-term table, 0 months, Batch No. 095I0720
[18] = biological target: T1, Galectin-3; test: ELISA (Biological Activity); accelerated stability 25 C/60% RH, 1 month
[19] = biological target: T1, Galectin-3; test: BLI (Binding Activity); accelerated stability 25 C/60% RH, 1 month
[20] = biological target: T2, Galectin-3 (Gal3) (UniProt P17931 1-250, limits assumed); test: BLI; 50 mg/mL DS after 4 C for 12 months
T2 construct: Target of TB006
T2 sequence (P17931 whole entry): as above

[21] = biological target: T2, Galectin-3 (Gal3); test: BLI; 50 mg/mL DS after 25 C for 14 days
[22] = biological target: T2, Galectin-3 (Gal3); test: BLI; 50 mg/mL DS, time 0 control
[23] = biological target: T2, Galectin-3 (Gal3); test: BLI; 50 mg/mL DS after -80 C for 6 months
[24] = biological target: T2, Galectin-3 (Gal3); test: BLI; 20 mg/mL DS after 40 C for 28 days
[25] = biological target: T2, Galectin-3 (Gal3); test: BLI; 50 mg/mL DS after agitation for 1 day
[26] = biological target: T2, Galectin-3 (Gal3); test: BLI; 20 mg/mL DS after agitation for 3 days
Method in brief: (§1)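 Binding to Galectin-3 was assessed by biolayer interferometry and given as the dissociation constant (Kd). Samples were tested at time zero or after stress, namely agitation (shear), repeated freeze-thaw cycles, or storage at set temperatures. The storage conditions included a 40° C stress test and cryogenic storage.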

[27] = biological target: T2, Galectin-3 (Gal3); test: BLI; 20 mg/mL DS after 40 C for 14 days
[28] = biological target: T2, Galectin-3 (Gal3); test: BLI; 20 mg/mL DS after -80 C for 3 months
[29] = biological target: T2, Galectin-3 (Gal3); test: BLI; 50 mg/mL DS after 40 C for 7 days
[30] = biological target: T2, Galectin-3 (Gal3); test: BLI; 20 mg/mL DS after 25 C for 3 months
Method in brief: as §1

[31] = biological target: T2, Galectin-3 (Gal3); test: BLI; 50 mg/mL DS after -80 C for 12 months
[32] = biological target: T2, Galectin-3 (Gal3); test: BLI; 20 mg/mL DS after 4 C for 12 months
Method in brief: as §1

Kd [1]: 2.8 nM
Kd [2]: 2.9 nM
Kd [3]: 2.3 nM
Kd [4]: 2.8 nM
Kd [5]: 2.6 nM
Kd [6]: 3.3 nM
Kd [7]: 2.1 nM
Kd [8]: 3.3 nM
Kd [9]: 2.9 nM
Kd [10]: 2.8 nM
IC50 [11]: 1.63 µg/mL and 1.43 µg/mL
Kd [12]: 3.1 nM
IC50 [13]: 1.67 µg/mL and 1.71 µg/mL
IC50 [14]: 1.35 µg/mL and 1.41 µg/mL
Kd [15]: 2.8 nM
Kd [16]: 2.5 nM
Kd [17]: 3 nM
IC50 [18]: 1.8 µg/mL
Kd [19]: 2.5 nM
B1: TB006 (antibody, human IgG4 S228P, kappa, V domains shown)
VH: QVQLVQSGAEVKKPGASVKVSCKASGYSFTNYYMHWVRQAPGQRLEWMGWIYPGSGNTNYNEKFQGRVTITADTSASTAYMELSSLRSEDTAVYYCSTAPGGFDVWGQGTTVTVSS
VL: DIVMTQTPLSLSVTPGQPASISCKSSKSLLHSDGITYLYWYLQKPGQSPQLLIYRMSNLASGVPDRFSGSGSGTDFTLKISRVEAEDVGVYYCAQMLEFPLTFGQGTKLEIKR
notes: Tested as formulated drug substance or drug product in 20 mM L-histidine, 5 mM methionine, 100 mM NaCl, 0.02% polysorbate 80, pH 5.8, or diluted in 0.9% saline; also called 4A11.H3L1; IMT006a

Kd [20]: 3.7 nM
Kd [21]: 3.1 nM
Kd [22]: 2.6 nM
Kd [23]: 1.8 nM
Kd [24]: 3.8 nM
Kd [25]: 3.8 nM
Kd [26]: 3.4 nM
Kd [27]: 2.9 nM
Kd [28]: 3.5 nM
Kd [29]: 2.7 nM
Kd [30]: 3.4 nM
Kd [31]: 3.5 nM
Kd [32]: 2.7 nM
B2: TB006 (antibody, human IgG4 S228P, kappa, V domains shown)
VH: QVQLVQSGAEVKKPGASVKVSCKASGYSFTNYYMHWVRQAPGQRLEWMGWIYPGSGNTNYNEKFQGRVTITADTSASTAYMELSSLRSEDTAVYYCSTAPGGFDVWGQGTTVTVSS
VL: DIVMTQTPLSLSVTPGQPASISCKSSKSLLHSDGITYLYWYLQKPGQSPQLLIYRMSNLASGVPDRFSGSGSGTDFTLKISRVEAEDVGVYYCAQMLEFPLTFGQGTKLEIKR
notes: Full antibody tested as drug substance (DS) in 20 mM L-histidine, 5 mM methionine, 100 mM NaCl, 0.02% polysorbate-80, pH 5.8; also called 4A11.H3L1; IMT006a
